Numbering of substitutions follows the chain as printed.
B1: eCC65.1-12 (antibody, V domains shown)
VH: EVQLVQSGAEVKKPGASVKVSCKASGYTFTSQYMHWVRQAPGQGLEWMGIIDPSGGGTSYAQKFRDRVSMTRDTPTSTVYMELRSLRSEDTAVYYCASLWFENPSWRDYWGQGTLVTVSS
VL: DVVMTQSPGTLSLSPGERATLSCRASQTVNKNYLAWYQQKPGQAPRLLIYHASSRATGIPDRFSGSGSGTDFTLTISRLEPEDFAVYYCQQYGASPPLFTFGPGTKLEIK
B2: eCC65.1-8 (antibody, V domains shown)
VH: VQLVQSGAEVKKPGASVKVSCKASGYEFTSQYMHWVRQAPGQGLEWMGIIDPSGGGASYAQKFRDRVSMTRDTPTSTVYMELRSLRSEDTAVYYCASLWFGNPSWRDYWGQGTLVTVSS
VL: VMTQSPGTLSLSPGERATLSCRASQTVNSNYLAWYQQKPGQAPRLLIYHASSRATGIPDRFSGSGSGTDFTLTISRLEPEDFAVYYCQQYQSSPPLFTFGPGTKLEIK
B3: eCC65.1-10 (antibody, V domains shown)
VH: B2 VH with E27D, A57T, G101E, R106S
VL: B2 VL with S29K, Q91G, S92A
B4: eCC65.1-13 (antibody, V domains shown)
VH: B1 VH
VL: B2 VL with S29K, H49G, Q91G, S92A
B5: eCC65.1-9 (antibody, V domains shown)
VH: B2 VH with E27D, S53E, A57T, G101E, N102K
VL: B2 VL with N28T, Q91G, S93K
B6: eCC65.1-5 (antibody, V domains shown)
VH: B2 VH with S24T, E27T, A57T, L98I, G101E
VL: B2 VL with S29K, H49G, Q91G
B7: eCC65.1-11 (antibody, V domains shown)
VH: B2 VH
VL: B2 VL with Q25S, Q91G, S92A
B8: eCC65.1-4 (antibody, V domains shown)
VH: B2 VH with E27T, T29E, S53K, A57T, G101E, N102T
VL: B2 VL with S29K, H49G, Q89T, Q91G
B9: eCC65.1-3 (antibody, V domains shown)
VH: B2 VH with E27T, S53E, A57T, G101E, N102Q
VL: B2 VL with S29K, Q91G, S92A
B10: eCC65.1-2 (antibody, V domains shown)
VH: B2 VH with S24T, E27T, S53K, A57T, G101E, R106T
VL: B2 VL with S29K, Q91G
B11: eCC65.1-6 (antibody, V domains shown)
VH: B1 VH
VL: B2 VL with S29K, Q91G
B12: eCC65.1-1 (antibody, V domains shown)
VH: B2 VH
VL: B2 VL with Q91G, S92A
B13: eCC65.1-7 (antibody, V domains shown)
VH: B2 VH with E27S, A57T, G101E
VL: B2 VL with S29K, Q91G, S92A

Columns and labels:
[1] = molecular target: T1, SARS-CoV-2 S-2P protein (SARS-CoV-2, ancestral (Wuhan-Hu-1) …, UniProt P0DTC2, stabilised); experiment: cell-based or functional assay
[2] = molecular target: T1, SARS-CoV-2 S-2P protein; experiment: BLI; settings: both partners purified

| Binder | IC50 of neutralisation of SARS-CoV-2 pseudovirus (HeLa-hACE2 cells) [1] | Kd [2] | kon [2] |
| --- | --- | --- | --- |
| B1 | 5.77 µg/mL | < 0.001 nM | 273000 M⁻¹ s⁻¹ |
| B2 | 3.95 µg/mL | 0.945 nM | 258000 M⁻¹ s⁻¹ |
| B3 | 1.86 µg/mL | < 0.001 nM | 278000 M⁻¹ s⁻¹ |
| B4 | 2.41 µg/mL | 0.0819 nM | 256000 M⁻¹ s⁻¹ |
| B5 | 2.6 µg/mL | 0.0102 nM | 306000 M⁻¹ s⁻¹ |
| B6 | 1.63 µg/mL | < 0.001 nM | 286000 M⁻¹ s⁻¹ |
| B7 | 5.26 µg/mL | 0.801 nM | 249000 M⁻¹ s⁻¹ |
| B8 | 1.84 µg/mL | 0.0136 nM | 287000 M⁻¹ s⁻¹ |
| B9 | 4.67 µg/mL | < 0.001 nM | 289000 M⁻¹ s⁻¹ |
| B10 | 2.05 µg/mL | < 0.001 nM | 283000 M⁻¹ s⁻¹ |
| B11 | 2.98 µg/mL | 0.0472 nM | 261000 M⁻¹ s⁻¹ |
| B12 | 5.79 µg/mL | 0.843 nM | 236000 M⁻¹ s⁻¹ |
| B13 | 3.01 µg/mL | 0.157 nM | 270000 M⁻¹ s⁻¹ |

Reference: publication PMC13480645 (PLOS Pathogens, 2026)
